Laboratory results: patent publication US20140030278A1 (QUIAPEG PHARMACEUTICALS, published 2014)
One block for each binder: values may come before it.

Legend:
[1] = biological target: T1, Recombinant human TNF-alpha (human, UniProt P01375 77-233); assay: pre-incubation with 2.9 ng/ml rhTNF-alpha, ELISA of unbound rhTNF-alpha
T1 construct: Bought reagent; also called rhTNF-alpha; TNF-α
Experimental: (§1) A fixed concentration of 2.9 ng/ml rhTNF-alpha was used in all incubations. PEGylation was conducted in 5 time molar excess (5 eq) or 10 time molar excess (10 eq) of PEG20 compared etanercept. IC₅₀ is expressed as gram etanercept per ml.
(§2) Recombinant human TNF-alpha (rhTNF-alpha; AbCam PLC, Cambridge, UK; at a fixed concentration of 2.9 ng/ml) was mixed with different concentrations (29000 ng/ml—56.6 pg/ml) of non-PEGylated etanercept, PEG20-etanercept (5 eq) or PEG20-etanercept (10 eq). The pre-incubation mixtures were incubated in a refrigerator at 4-8° C. overnight. The amount of unbound rhTNF-alpha was analysed with a sensitive enzyme-linked immunosorbent assay (ELISA). In brief, 96-well plates (MaxiSorb, Nunc, Roskilde, Denmark) were used for the ELISA. Plates were coated with two anti-TNF-alpha monoclonal antibodies (TNF3/4, Mabtech AB, Nacka Strand, Sweden) diluted in PBS, pH 7.4, to a final concentration of 2 μg/ml. The 96-well plates were incubated in a refrigerator at 4-8° C. overnight. […] The optical density of the resultant yellow color was measured in a spectrophotometer at 450 nm.

[2] = biological target: T1, Recombinant human TNF-alpha; assay: pre-incubation with 2.9 ng/ml rhTNF-alpha, ELISA of unbound rhTNF-alpha, 4-parameter fit
Experimental: as §1, §2

T1 sequence (P01375 77-233 limits assumed): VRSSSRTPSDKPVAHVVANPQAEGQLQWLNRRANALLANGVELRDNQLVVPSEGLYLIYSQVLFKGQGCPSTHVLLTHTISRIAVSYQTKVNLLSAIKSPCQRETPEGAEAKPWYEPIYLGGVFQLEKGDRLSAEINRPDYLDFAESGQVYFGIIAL

binding result [1]: binds
B1: etanercept (ENBREL®), non-PEGylated (Fc fusion)
chain: LPAQVAFTPYAPEPGSTCRLREYYDQTAQMCCSKCSPGQHAKVFCTKTSDTVCDSCEDSTYTQLWNWVPECLSCGSRCSSDQVETQACTREQNRICTCRPGWYCALSKQEGCRLCAPLRKCRPGFGVARPGTETSDVVCKPCAPGTFSNTTSSTDICRPHQICNVVAIPGNASMDAVCTSTSPTRSMAPGAVHLPQPVSTRSQHTQPTPEPSTAPSTSFLLPMGPSPPAEGSTGDEPKSCDKTHTCPPCPAPELLGGPSVFLFPPKPKDTLMISRTPEVTCVVVDVSHEDPQVKFNWYVDGVQVHNAKTKPREQQYNSTYRVVSVLTVLHQNWLDGKEYKCKVSNKALPAPIEKTISKAKGQPREPQVYTLPPSREEMTKNQVSLTCLVKGFYPSDIAVEWESNGQPENNYKTTPPVLDSDGSFFLYSKLTVDKSRWQQGNVFSCSVMHEALHNHYTQKSLSLSPGK
notes: Commercial ENBREL (Wyeth Europa Ltd); also called etanercept (non-PEGylated); non-PEGylated etanercept

fold IC50 against non-PEGylated etanercept [2]: < 2 fold
B2: PEG20-etanercept (10 eq) (Fc fusion)
chain: B1 chain
modifications: 20 KDa PEG (PEG20) conjugated via NHS-ester PEG reagent at 10 times molar excess; sites not stated
notes: also called PEGylated etanercept

fold IC50 against non-PEGylated etanercept [2]: < 2 fold
B3: PEG20-etanercept (5 eq) (Fc fusion)
chain: B1 chain
modifications: 20 KDa PEG (PEG20) conjugated via NHS-ester PEG reagent at 5 times molar excess; sites not stated
notes: as for B2
